Measurements reported in patent US20110256153A1 (IMMUNOGEN, published 2011).
Each block holds one binder with its values, some of them ahead of it.

Experiments:
human CD37 [1] = target: T1, human CD37 (human, UniProt P11049 1-278); assay: flow cytometry titration on Ramos cells; apparent Kd
T1 construct: Tetraspanin antigen; Expressed on 300-19 cells transfected with pSRa-CD37 (entire CDS) or endogenous on WSU-DLCL-2, BJAB and Ramos lymphoma cells; also called CD37 antigen; human CD37 wildtype
T1 sequence: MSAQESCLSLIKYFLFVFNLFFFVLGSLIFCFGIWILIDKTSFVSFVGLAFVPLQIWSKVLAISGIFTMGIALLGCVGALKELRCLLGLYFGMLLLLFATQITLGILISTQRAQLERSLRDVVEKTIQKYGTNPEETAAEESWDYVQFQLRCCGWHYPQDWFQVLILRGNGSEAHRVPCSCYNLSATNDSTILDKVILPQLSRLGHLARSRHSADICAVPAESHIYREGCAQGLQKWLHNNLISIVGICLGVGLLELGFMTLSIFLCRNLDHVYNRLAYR
Method: (§1) Binding specificity was tested by flow cytometry using purified antibodies. […] All murine antibodies were incubated for 3 h with either CD37-expressing 300-19 cells or the non-transfected 300-19 cells (1×10⁵ cells per sample) in 100 μL FACS buffer (RPMI-1640 medium supplemented with 2% normal goat serum). Then, the cells were pelleted, washed, and incubated for 1 h with 100 μL of FITC-conjugated goat anti-mouse IgG-antibody (Jackson Laboratory, 6 μg/mL in FACS buffer). The cells were pelleted again, washed with FACS buffer and resuspended in 200 μL of PBS containing 1% formaldehyde. Samples were acquired using a FACSCalibur flow cytometer with the HTS multiwell sampler or a FACS array flow cytometer and analyzed using CellQuest Pro (all from BD Biosciences, San Diego, US).
The chimeric antibodies chCD37-3 and chCD37-12 were assayed for their binding affinity to Ramos cells in comparison to their murine counterparts. Flow cytometry binding assays using Ramos cells and muCD37-3, chCD37-3, muCD37-12 and chCD37-12 antibodies were carried out and analyzed as described in Example 2 using secondary FITC-conjugated goat-anti-murine and -anti-human antibodies. FIG. 9A depicts the dose-response curves generated by non-linear regression for each antibody. The value for the apparent dissociation constant (Kd) of each antibody was calculated using GraphPad Prism v4 (GraphPad software, San Diego, Calif.).

human CD37 [2] = target: T1, human CD37; assay: competition flow cytometry on BJAB cells; competitor PE-labeled muCD37-3 (1 nM)
Method: Flow cytometry binding assays using BJAB cells and a competitive binding format were used to evaluate binding affinity of chimeric and humanized versions of CD37-3. BJAB cells were incubated with a 1 nM concentration of PE-labeled muCD37-3 antibody and competition was measured by adding varying amounts of muCD37-3, chCD37-3, huCD37-3v1.0 or huCD37-3v1.01. The samples were incubated for 3 hrs at 4° C. Then, the cells were pelleted, washed with FACS buffer and resuspended in 200 μL of PBS containing 1% formaldehyde. Samples were acquired using a FACSCalibur flow cytometer with the HTS multiwell sampler and analyzed using CellQuest Pro (all from BD Biosciences, San Diego, US). The resulting mean PE fluorescence was plotted against the amount of competing antibody used in a semi-log plot. FIG. 9B depicts the dose-response curves generated by non-linear regression for each antibody. The value for the apparent dissociation constant (Kd) of each antibody was calculated using GraphPad Prism v4 (GraphPad software, San Diego, Calif.).

human CD37 [3] = target: T1, human CD37; assay: cell-based or functional assay
human CD37 [4] = target: T1, human CD37; assay: flow cytometry titration on BJAB cells (FIG. 20A); apparent Kd
macaque CD37 [5] = target: T2, macaque CD37 (macaque, UniProt P11049 1-277 (human entry)); assay: flow cytometry, 300-19/CD37mac cells
T2 construct: Expressed on 300-19 cells transfected with pSRa-CD37mac (300-19/CD37mac cells); also called macaca CD37; macaque derived CD37 antigen
T2 chain: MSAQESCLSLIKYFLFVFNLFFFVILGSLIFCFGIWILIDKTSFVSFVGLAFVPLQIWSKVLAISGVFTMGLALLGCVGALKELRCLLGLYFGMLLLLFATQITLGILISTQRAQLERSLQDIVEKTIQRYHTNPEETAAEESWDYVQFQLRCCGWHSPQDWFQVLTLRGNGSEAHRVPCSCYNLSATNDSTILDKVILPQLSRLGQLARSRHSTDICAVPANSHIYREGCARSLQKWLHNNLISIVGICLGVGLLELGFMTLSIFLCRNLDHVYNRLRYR
Method: as §1
The murine antibodies muCD37-3, muCD37-12, muCD37-38, […], muCD37-51, muCD37-56 and muCD37-57 were assayed for their ability to bind to 300-19/CD37mac cells expressing macaque CD37. Flow cytometry binding assays were carried out using secondary FITC-conjugated goat-anti-murine or goat-anti-human antibodies, analyzed as described in Example 2. Binding was compared to the previously described anti-CD37 antibody WR17 and the anti-CD37 SMIP TRU-016. […] In contrast, muCD37-3, muCD37-12, the previously described anti-CD37 antibody WR17 and the anti-CD37 SMIP TRU-016 are unable to bind the macaque derived CD37 antigen.

human CD37 [6] = target: T1, human CD37; assay: flow cytometry titration; apparent Kd; cells not named
human CD37 [7] = target: T1, human CD37; assay: flow cytometry titration on BJAB cells; apparent Kd
Method: as §1
The humanized antibodies huCD37-38, huCD37-50, huCD37-51, huCD37-56 and chCD37-57 were assayed for their binding affinity to BJAB cells in comparison to their murine counterparts. Flow cytometry binding assays were carried out using secondary FITC-conjugated goat-anti-murine and -anti-human antibodies, analyzed as described in Example 2 and dose-response curves were generated by non-linear regression for each antibody. The value for the apparent dissociation constant (Kd) of each antibody was calculated using GraphPad Prism v4 (GraphPad software, San Diego, Calif.).

human CD37 [8] = target: T1, human CD37; assay: flow cytometry titration on BJAB cells (FIG. 20B); apparent Kd
macaque CD37 [9] = target: T2, macaque CD37; assay: flow cytometry titration on 300-19/CD37mac cells; apparent Kd
Method: as §1
Flow cytometry binding assays were carried out using secondary FITC-conjugated goat-anti-human antibodies, analyzed as described in Example 2 and dose-response curves were generated by non-linear regression for each antibody. The value for the apparent dissociation constant (Kd) of each antibody was calculated using GraphPad Prism v4 (GraphPad software, San Diego, Calif.).

B1: chCD37-3 (antibody, human IgG1, kappa)
heavy: not shown
light: DIQMTQSPASLSVSVGETVTITCRASENIRSNLAWYQQKQGKSPQLLVNVATNLADGVPSRFSGSGSGTQYSLKINSLQSEDFGTYYCQHYWGTTWTFGGGTKLEIKRTVAAPSVFIFPPSDEQLKSGTASVVCLLNNFYPREAKVQWKVDNALQSGNSQESVTEQDSKDSTYSLSSTLTLSKADYEKHKVYACEVTHQGLSSPVTKSFNRGEC
notes: Chimeric antibody, murine variable regions with human constant regions
- Kd (human CD37 [1]): 0.8 nM
- EC50 (human CD37 [2]): 0.7 nM

B3: huCD37-3 (antibody, human IgG1, kappa, V domains shown)
VH: QVQVQESGPGLVAPSQTLSITCTVSGFSLTTSGVSWVRQPPGKGLEWLGVIWGDGSTNYHPSLKSRLSIKKDHSKSQVFLKLNSLTAADTATYYCAKGGYSLAHWGQGTLVTVSS
VL: DIQMTQSPSSLSVSVGERVTITCRASENIRSNLAWYQQKPGKSPKLLVNVATNLADGVPSRFSGSGSGTDYSLKINSLQPEDFGTYYCQHYWGTTWTFGQGTKLEIKR
notes: also called huCD37-3 Ab; huCD37-3 antibody
- binding result (macaque CD37 [5]): no binding
- Kd (human CD37 [6]): 0.28 nM
- Kd (human CD37 [4]): 0.26 nM
- Kd (human CD37 [7]): 0.2 nM

B4: huCD37-38-SMCC-DM1 (antibody, human IgG1, kappa, V domains shown)
VH: QVQLQESGPGLVKPSQSLSLTCTVSGYSITSGFGWHWIRQFPGKGLEWMAYILYSGGTDYNPSLKSRISITRDTSKNQFFLRLSSVTAADTATYYCARGYYGYGAWFVYWGQGTLVTVSS
VL: DIVLTQSPASMSASPGERVTMTCSASSSVTYMHWYQQKPGTSPKRWIYDTSKLASGVPARFSGSGSGTSYSLTISSMEAEDAATYYCQQWISNPPTFGGGTKLEIKR
modifications: DM1 attached through SMCC linker; attachment residues and load not stated
notes: SMCC-DM1 conjugate of huCD37-38
- EC50 of in vitro cytotoxicity, WST-8 assay, Daudi cells (human CD37 [3]): 0.098 nM
- EC50 of in vitro cytotoxicity, WST-8 assay, Granta-519 cells (human CD37 [3]): 0.074 nM
- Kd (human CD37 [8]): 1.2 nM

Continued, in another order:

- Kd (human CD37 [4]): 0.89 nM
B2: huCD37-3-sulfo-mal-DM4 (antibody, human IgG1, kappa, V domains shown)
VH: B3 VH
VL: B3 VL
modifications: DM4 attached through 3-sulfo-mal linker; attachment residues not stated; 3.5-4 DM4 per antibody
notes: heavy chain version as for huCD37-3, see its note
- EC50 of in vitro cytotoxicity, BJAB cells (human CD37 [3]): 0.11 nM
- EC50 of in vitro cytotoxicity, Daudi cells (human CD37 [3]): 0.14 nM
- EC50 of in vitro cytotoxicity, Granta-519 cells (human CD37 [3]): 0.088 nM

- Kd (macaque CD37 [9]): 1.1 nM
- Kd (human CD37 [8]): 1.04 nM
- Kd (human CD37 [7]): 0.3 nM
B5: huCD37-38 (antibody, human IgG1, kappa, V domains shown)
VH: B4 VH
VL: B4 VL
notes: Humanized antibody
